B1: GpH7-A5/GpH7-B3 variant S298_11K/GpL16-k0 (antibody, human IgG1, kappa)
heavy 1: not shown
heavy 2: not shown
light: DIVMTQSPLSLPVTPGEPASISCQASESLVHSNRNTYLHWYLQKPGQSPQLLIYKVSNRFSGVPDRFSGSGSGTDFTLKISRVEAEDVGVYYCSQNTHVPPTFGQGTKVEIERTVAAPSVFIFPPSDEQLKSGTASVVCLLNNFYPREAKVQWKVDNALQSGNSQESVTEQDSKDSTYSLSSTLTLSKADYEKHKVYACEVTHQGLSSPVTKSFNRGEC
notes: He Ab: mutation in one H chain only; also called He Ab
B2: GpH7-A5/GpH7-B3 variant S298_15Y/GpL16-k0 (antibody, human IgG1, kappa)
heavy 1: not shown
heavy 2: not shown
light: B1 light
notes: as for B1
B3: GpH7-A5/GpH7-B3 variant I336_04F/GpL16-k0 (antibody, human IgG1, kappa)
heavy 1: not shown
heavy 2: not shown
light: B1 light
notes: as for B1
B4: GpH7-A5/GpH7-B3 variant I336_12R/GpL16-k0 (antibody, human IgG1, kappa)
heavy 1: not shown
heavy 2: not shown
light: B1 light
notes: as for B1
B5: GpH7-A5/GpH7-B3 variant S298_12R/GpL16-k0 (antibody, human IgG1, kappa)
heavy 1: not shown
heavy 2: not shown
light: B1 light
notes: as for B1
B6: GpH7-A5/GpH7-B3 variant S298_18N/GpL16-k0 (antibody, human IgG1, kappa)
heavy 1: not shown
heavy 2: not shown
light: B1 light
notes: as for B1
B7: GpH7-A5/GpH7-B3 variant I336_19Q/GpL16-k0 (antibody, human IgG1, kappa)
heavy 1: not shown
heavy 2: not shown
light: B1 light
notes: as for B1
B8: GpH7-A5/GpH7-B3 variant S324_01G/GpL16-k0 (antibody, human IgG1, kappa)
heavy 1: not shown
heavy 2: not shown
light: B1 light
notes: as for B1
B9: GpH7-A5/GpH7-B3 variant I336_14T/GpL16-k0 (antibody, human IgG1, kappa)
heavy 1: not shown
heavy 2: not shown
light: B1 light
notes: as for B1
B10: GpH7-A5/GpH7-B3 variant I336_15Y/GpL16-k0 (antibody, human IgG1, kappa)
heavy 1: not shown
heavy 2: not shown
light: B1 light
notes: as for B1
B11: GpH7-A5/GpH7-B3 variant A327_15Y/GpL16-k0 (antibody, human IgG1, kappa)
heavy 1: not shown
heavy 2: not shown
light: B1 light
notes: as for B1
B12: GpH7-A5/GpH7-B3 variant A327_13S/GpL16-k0 (antibody, human IgG1, kappa)
heavy 1: not shown
heavy 2: not shown
light: B1 light
notes: as for B1
B13: GpH7-A5/GpH7-B3 variant N325_19Q/GpL16-k0 (antibody, human IgG1, kappa)
heavy 1: not shown
heavy 2: not shown
light: B1 light
notes: as for B1
B14: GpH7-A5/GpH7-B3 variant S324_20W/GpL16-k0 (antibody, human IgG1, kappa)
heavy 1: not shown
heavy 2: not shown
light: B1 light
notes: as for B1
B15: GpH7-A5/GpH7-B3 variant N325_11K/GpL16-k0 (antibody, human IgG1, kappa)
heavy 1: not shown
heavy 2: not shown
light: B1 light
notes: as for B1
B16: GpH7-A5/GpH7-B3 variant A327_08L/GpL16-k0 (antibody, human IgG1, kappa)
heavy 1: not shown
heavy 2: not shown
light: B1 light
notes: as for B1
B17: GpH7-A5/GpH7-B3 variant S324_12R/GpL16-k0 (antibody, human IgG1, kappa)
heavy 1: not shown
heavy 2: not shown
light: B1 light
notes: as for B1
B18: GpH7-A5/GpH7-B3 variant I336_13S/GpL16-k0 (antibody, human IgG1, kappa)
heavy 1: not shown
heavy 2: not shown
light: B1 light
notes: as for B1
B19: GpH7-A5/GpH7-B3 variant S298_16H/GpL16-k0 (antibody, human IgG1, kappa)
heavy 1: not shown
heavy 2: not shown
light: B1 light
notes: as for B1
B20: GpH7-A5/GpH7-B3 variant S298_20W/GpL16-k0 (antibody, human IgG1, kappa)
heavy 1: not shown
heavy 2: not shown
light: B1 light
notes: as for B1
B21: GpH7-A5/GpH7-B3 variant S324_10E/GpL16-k0 (antibody, human IgG1, kappa)
heavy 1: not shown
heavy 2: not shown
light: B1 light
notes: as for B1
B22: GpH7-A5/GpH7-B3 variant A327_11K/GpL16-k0 (antibody, human IgG1, kappa)
heavy 1: not shown
heavy 2: not shown
light: B1 light
notes: as for B1
B23: GpH7-A5/GpH7-B3 variant S324_11K/GpL16-k0 (antibody, human IgG1, kappa)
heavy 1: not shown
heavy 2: not shown
light: B1 light
notes: as for B1

What was measured:
FcγRIa = biological target: T1, FcγRIa (human, UniProt P12314 16-292); assay: SPR (Biacore), captured antibody, FcγR as analyte, relative binding
T1 construct: extracellular domain; Soluble extracellular domain with C-terminal His tag, used as analyte; also called FcgRI; CD64; not shown: His tag at the C terminus
T1 sequence (P12314 16-292): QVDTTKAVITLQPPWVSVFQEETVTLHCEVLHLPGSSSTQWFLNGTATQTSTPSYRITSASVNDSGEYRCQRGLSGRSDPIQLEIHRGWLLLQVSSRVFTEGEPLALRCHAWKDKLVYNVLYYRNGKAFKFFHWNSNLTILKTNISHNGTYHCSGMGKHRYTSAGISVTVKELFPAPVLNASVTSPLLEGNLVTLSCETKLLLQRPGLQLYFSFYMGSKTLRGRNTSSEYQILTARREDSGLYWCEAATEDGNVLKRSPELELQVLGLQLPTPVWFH
Protocol: (§1) The heterodimerized antibodies He Abs in which one of the H chains was introduced with an alteration were assayed for their binding activities to each activating FcγR and inhibitory FcγR according to the method described in Example 4. […] The activating FcγRs in FIGS. 26, 27, 28, and 29 are FcγRIa, FcγRIIa (R), FcγRIIa (H), and FcγRIIIa, respectively.
(§2) Analysis of interaction between objective antibody and the FcγR was carried out using Biacore T100 (GE Healthcare). HBS-EP+ (GE Healthcare) was used as the running buffer, and the measurement temperature was set to 25° C. Chips produced by immobilizing the antigen peptide by the amine coupling method to a Series S Sencor Chip CM5 (GE Healthcare), or alternatively, chips produced by allowing preliminarily biotinylated antigen peptides to interact with and immobilize onto a Series S Sensor Chip SA (certified) (GE Healthcare) were used. Antibodies of interest were captured onto an antigen peptide-immobilized chip, and allowed to interact to each FcγR diluted with running buffer. To regenerate and repeatedly use the chip, the antibodies captured on the chip were washed off by reacting 10 mM glycine-HCl, pH 1.5.

FcγRIIb = biological target: T2, FcγRIIb (human, UniProt P31994 43-217); assay: as above
T2 construct: extracellular domain; Soluble extracellular domain with C-terminal His tag, used as analyte; also called FcgRIIb; CD32B; not shown: His tag at the C terminus
T2 sequence (looked up): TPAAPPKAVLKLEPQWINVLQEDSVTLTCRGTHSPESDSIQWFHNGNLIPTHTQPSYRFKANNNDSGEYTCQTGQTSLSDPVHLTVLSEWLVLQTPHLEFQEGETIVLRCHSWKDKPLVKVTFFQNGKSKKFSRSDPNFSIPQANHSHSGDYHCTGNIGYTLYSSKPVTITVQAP
Protocol: as §1, §2

| Binder | He/Con_1a (FcγRIa) | He/Con_2b (FcγRIIb) |
| --- | --- | --- |
| B1 | 109 % of GpH7-A5/GpH7-B3/GpL16-k0 | 61.3 % of GpH7-A5/GpH7-B3/GpL16-k0 |
| B2 | 107 % of GpH7-A5/GpH7-B3/GpL16-k0 | 61.4 % of GpH7-A5/GpH7-B3/GpL16-k0 |
| B3 | 106 % of GpH7-A5/GpH7-B3/GpL16-k0 | 91.2 % of GpH7-A5/GpH7-B3/GpL16-k0 |
| B4 | 102 % of GpH7-A5/GpH7-B3/GpL16-k0 | 92.1 % of GpH7-A5/GpH7-B3/GpL16-k0 |
| B5 | 109 % of GpH7-A5/GpH7-B3/GpL16-k0 | 57.8 % of GpH7-A5/GpH7-B3/GpL16-k0 |
| B6 | 108 % of GpH7-A5/GpH7-B3/GpL16-k0 | 48.1 % of GpH7-A5/GpH7-B3/GpL16-k0 |
| B7 | 104 % of GpH7-A5/GpH7-B3/GpL16-k0 | 58.2 % of GpH7-A5/GpH7-B3/GpL16-k0 |
| B8 | 98.8 % of GpH7-A5/GpH7-B3/GpL16-k0 | 81.1 % of GpH7-A5/GpH7-B3/GpL16-k0 |
| B9 | 104 % of GpH7-A5/GpH7-B3/GpL16-k0 | 89.5 % of GpH7-A5/GpH7-B3/GpL16-k0 |
| B10 | 103 % of GpH7-A5/GpH7-B3/GpL16-k0 | 68.2 % of GpH7-A5/GpH7-B3/GpL16-k0 |
| B11 | 96.3 % of GpH7-A5/GpH7-B3/GpL16-k0 | 60.8 % of GpH7-A5/GpH7-B3/GpL16-k0 |
| B12 | 102 % of GpH7-A5/GpH7-B3/GpL16-k0 | 79.5 % of GpH7-A5/GpH7-B3/GpL16-k0 |
| B13 | 99.1 % of GpH7-A5/GpH7-B3/GpL16-k0 | 69.1 % of GpH7-A5/GpH7-B3/GpL16-k0 |
| B14 | 114 % of GpH7-A5/GpH7-B3/GpL16-k0 | 87.5 % of GpH7-A5/GpH7-B3/GpL16-k0 |
| B15 | 80.9 % of GpH7-A5/GpH7-B3/GpL16-k0 | 10.4 % of GpH7-A5/GpH7-B3/GpL16-k0 |
| B16 | 98.6 % of GpH7-A5/GpH7-B3/GpL16-k0 | 63.1 % of GpH7-A5/GpH7-B3/GpL16-k0 |
| B17 | 102 % of GpH7-A5/GpH7-B3/GpL16-k0 | 63.1 % of GpH7-A5/GpH7-B3/GpL16-k0 |
| B18 | 102 % of GpH7-A5/GpH7-B3/GpL16-k0 | 83.7 % of GpH7-A5/GpH7-B3/GpL16-k0 |
| B19 | 109 % of GpH7-A5/GpH7-B3/GpL16-k0 | 63.5 % of GpH7-A5/GpH7-B3/GpL16-k0 |
| B20 | 104 % of GpH7-A5/GpH7-B3/GpL16-k0 | 41.1 % of GpH7-A5/GpH7-B3/GpL16-k0 |
| B21 | 105 % of GpH7-A5/GpH7-B3/GpL16-k0 | 77.4 % of GpH7-A5/GpH7-B3/GpL16-k0 |
| B22 | 86.1 % of GpH7-A5/GpH7-B3/GpL16-k0 | 12.5 % of GpH7-A5/GpH7-B3/GpL16-k0 |
| B23 | 102 % of GpH7-A5/GpH7-B3/GpL16-k0 | 68.6 % of GpH7-A5/GpH7-B3/GpL16-k0 |

Source: US20150344570A1 (published 2015)
